For 27 proteins, protein stability index results are on record in the supplement of paper PMC10567573.

A short description of this data set: protein stability index of a GFP-peptide fusion (GPS, HEK-293T) (PSI 1-6); higher = more stable. The note with it: c terminus: a fixed tail appended.
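Further: lentivirally expressed fusions sorted by FACS into six bins by GFP to DsRed ratio, PSI derived from sequencing read proportions per bin multiplied by bin number.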

B1: CLCN6 WT (peptide)
chain: VGEIVGIITRHNLTYEFLQARLRQ
In the case of B1, the protein stability index (parent: IOH52910_141) came to 2.41.

B2: SNAP91 WT (peptide)
chain: FATASAAVPVSTSKPSSDLLDLQP
B2: the protein stability index (parent: IOH52952_56) is 3.71.

B3: CAMK2D WT (peptide)
chain: LLKHPNIVRLHDSISEEGFHYLVF
On to B3, for which the protein stability index (parent: IOH54032_12) was 2.28.

B4: HDAC6 WT (peptide)
chain: QEGLLDRCVSFQARFAEKEELMLV
B4: the protein stability index (parent: IOH53646_21) came to 1.78.

B5: CLCN6 WT (peptide)
chain: ILRSQLVTLLVRGVCYSESQSSAS
Take B5: the protein stability index (parent: IOH52910_125) amounted to 2.67.

B6: INTS4 WT (peptide)
chain: IRLVDDAFGKICHMVSDGSWVVRV
For the protein B6, where the note is “parent: IOH53018_47”, the protein stability index is 3.03.

B7: HDAC6 WT (peptide)
chain: YVHHQALLDVKNIAHQNKFGEDMP
Consider B7, for which the protein stability index (parent: IOH53646_199) was found to be 2.

B8: CLCN6 WT (peptide)
chain: MAGCRGSLCCCCRWCCCCGERETR
As to B8, the protein stability index (parent: IOH52910_1) was found to be 1.87.

B9: KLHL14 WT (peptide)
chain: WLYCYDPVMDVWARKQDMNTKRAI
Take B9: where the note is “parent: IOH52486_82”, the protein stability index is 1.93.

B10: SNAP91 WT (peptide)
chain: FSTDAFSSPPQGASPVPESSLTAD
On to B10, for which the protein stability index (parent: IOH52952_99) stood at 3.2.

B11: CLCN6 WT (peptide)
chain: FQSISLRKIQFNFPYFRSDRDKRD
On to B11, for which the protein stability index (parent: IOH52910_37) was 1.87.

B12: HDAC6 WT (peptide)
chain: ACAQLATGAACRLVEAVLSGEVLN
With B12, the protein stability index (parent: IOH53646_97) came out at 2.94.

B13: HDAC6 WT (peptide)
chain: DLMETTQYMNEGELRVLADTYDSV
In the case of B13, under “parent: IOH53646_26”, the protein stability index is 2.05.

B14: INTS4 WT (peptide)
chain: TIIEPAGESDNPLRFTSGLVVALD
In the case of B14, the protein stability index (parent: IOH53018_138) is 2.83.

B15: RTN2 WT (peptide)
chain: SERPLEDLRLRLDHLGWVARGTGS
On to B15, for which, where the note is “parent: IOH53506_23”, the protein stability index amounted to 2.32.

B16: HMOX1 WT (peptide)
chain: YHIYVALEEEIERNKESPVFAPVY
For B16, the protein stability index (parent: IOH54938_10) is 2.02.

B17: SNAP91 WT (peptide)
chain: FGGSFMAPSPSPVTPAQNNLLQPN
With B17, the protein stability index (parent: IOH52952_113) was 1.96.

B18: SNAP91 WT (peptide)
chain: FAAPSPATTASPAKVDSSGVIDLF
In the case of B18, the protein stability index (parent: IOH52952_104) worked out at 2.35.

B19: INTS4 WT (peptide)
chain: AKQIMEETYKMEFMYSGVENKQVV
As for B19, where the note is “parent: IOH53018_117”, the protein stability index is 1.69.

B20: SNAP91 WT (peptide)
chain: FAQPMMRPPFGAAAVPGTQLSPSP
As to B20, where the note is “parent: IOH52952_144”, the protein stability index was determined as 3.08.

B21: INTS4 WT (peptide)
chain: YSSGEFSSGRKWGDDAPKEEVDTG
As to B21, under “parent: IOH53018_58”, the protein stability index was found to be 2.34.

B22: KLHL14 WT (peptide)
chain: CAVLDDSIYLVGGYSWSMGAYKSS
On to B22, for which the protein stability index (parent: IOH52486_95) stood at 2.2.

B23: DCTD WT (peptide)
chain: VKGCSMYVALFPCNECAKLIIQAG
With B23, where the note is “parent: IOH54732_19”, the protein stability index was determined as 2.63.

B24: CAMK2D WT (peptide)
chain: IVRLHDSISEEGFHYLVFDLVTGG
Turning to B24, the protein stability index (parent: IOH54032_13) is 2.65.

B25: HDAC6 WT (peptide)
chain: QYMNEGELRVLADTYDSVYLHPNS
In the case of B25, the protein stability index (parent: IOH53646_27) amounted to 1.87.

B26: HDAC6 WT (peptide)
chain: KMKTRELHRESSNFDSIYICPSTF
Regarding B26, under “parent: IOH53646_93”, the protein stability index amounted to 2.14.

B27: CLCN6 WT (peptide)
chain: TGLVGLFVDFFVRLFTQLKFGVVQ
Turning to B27, under “parent: IOH52910_16”, the protein stability index came out at 2.3.
